Experimental data taken from the supplement of paper PMC10724198.

Columns and labels:
Saccharomyces cerevisiae [1] = assay: protein stability index of tFT-peptide fusion in wild type (PSI (0-1 scale)); higher = more stable (slower turnover); conditions: genetic background: wild type
Saccharomyces cerevisiae [2] = assay: protein stability index of tFT-peptide fusion in deletion strain of DOA10 (PSI (0-1 scale)); higher = more stable (slower turnover)
Method: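 MPS profiling in S. cerevisiae of two library types built from selected 12-aa C-degron peptides (IN1, IN2, LN1, LN3, VN2, R1-R5, W1-W3, Atg1 and Rpa12 C-termini): saturation mutagenesis libraries and C-terminal +1 capping libraries (13 aa). Each peptide is fused to the C-terminus of a sfGFP-mCherry timer, after a GGGS linker. Cells are FACS-sorted into 8 mCherry/sfGFP bins and sequenced. PSI runs from 0 (unstable) to 1 (stable), measured once in wild type and in the das1Δ or doa10Δ background.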
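Throughout, for protein stability index of tFT-peptide fusion in deletion strain of DOA10: PSI per variant is the weighted mean of its sequencing read distribution over the sorted stability bins, counting only variants with over 10 reads summed across bins.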
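Throughout, for protein stability index of tFT-peptide fusion in wild type: PSI derived as read-weighted mean over the 8 sorting bins, only variants exceeding 10 total reads kept, mCherry placed adjacent to the peptide and sfGFP distal.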

Sequence	protein stability index (Saccharomyces cerevisiae [1])	protein stability index (Saccharomyces cerevisiae [2])
AGTLPMCPLLLR	0.461	0.671
AIGLPMCPLLLR	0.297	0.653
AITLPDCPLLLR	0.437	0.711
AITLPHCPLLLR	0.264	0.713
AITLPICPLLLR	0.194	0.667
AITLPMAPLLLR	0.253	0.666
AITLPMCPILLR	0.216	0.619
AITLPMCPLCLR	0.556	0.702
AITLPMCPLLLP	0.627	0.675
AITLPMCPLLLRL	0.12	0.563
AITLPMCPLLLRY	0.152	0.633
AITLPMCPLWLR	0.239	0.695
AITLPMCPNLLR	0.645	0.672
AITLPMCPTLLR	0.581	0.678
AITLPMNPLLLR	0.392	0.685
AITLPMWPLLLR	0.124	0.673
AITLTMCPLLLR	0.386	0.667
AITLYMCPLLLR	0.309	0.628
AITPPMCPLLLR	0.458	0.686
AKTLPMCPLLLR	0.352	0.672
ALTLPMCPLLLR	0.21	0.646
AVTRLDAIYFRI	0.317	0.696
AWTLPMCPLLLR	0.111	0.665
CLISLPILLFFR	0.0542	0.552
CLRSLPILLFFR	0.0732	0.619
CLSSLPILLFFR	0.0943	0.641
CLVNLPILLFFR	0.0622	0.597
CLVSLGILLFFR	0.276	0.436

Sequence	protein stability index (Saccharomyces cerevisiae [1])	protein stability index (Saccharomyces cerevisiae [2])
CLVSLPDLLFFR	0.188	0.709
CLVSLPGLLFFR	0.126	0.656
CLVSLPHLLFFR	0.0749	0.67
CLVSLPILKFFR	0.63	0.666
CLVSLPILLFFA	0.256	0.346
CLVSLPILLFFRD	0.103	0.594
CLVSLPILLFFRH	0.0656	0.577
CLVSLPILLFFRP	0.068	0.563
CLVSLPILLFFRS	0.0709	0.533
CLVSLPILLFLR	0.0512	0.564
CLVSLPILLQFR	0.344	0.642
CLVSLPILRFFR	0.612	0.657
CLVSLPILYFFR	0.468	0.605
CLVSLPLLLFFR	0.0578	0.606
CLVSLPRLLFFR	0.0729	0.664
CNVSLPILLFFR	0.0527	0.642
CWVSLPILLFFR	0.0534	0.54
ELYMCSVGCWFR	0.388	0.651
ESLRVLLPLYFR	0.308	0.683
GEYMCSVGCWFR	0.425	0.667
GGYMCSVGCWFR	0.439	0.687
GLGMCSVGCWFR	0.336	0.674
GLSMCSVGCWFR	0.235	0.671
GLYECSVGCWFR	0.526	0.678
GLYMCSQGCWFR	0.463	0.691
GLYMCSVFCWFR	0.222	0.365
GLYMCSVGCCFR	0.611	0.651
